Assays:
[1] = biological target: Spirosoma linguale α-N-acetylgalactosaminidase (Spirosoma linguale); experiment: SEC; analytical gel filtration of the tag-free purified enzyme, Zorbax GF-250 column, 30°C, TBS (50 mM Tris 150 mM NaCl) pH 7.4, 1.0 mL/min; mass from Ve/Vo against five protein standards
[2] = biological target: T1, S. linguale α-NAGA (SlNAGA) (Spirosoma linguale, UniProt D2QUW2); experiment: Product inhibition of 4-nitrophenyl substrate hydrolysis, absorbance at […] nm, competitive model fit; format: biochemical; settings: 20 mM sodium phosphate pH 7.0, ~22 °C
T1 construct: gene Slin_6637; E. coli BL21(DE3); monomer 48215 Da calculated, 96 kDa dimer; primers encode N-term MPSLYTTAQ and C-term PIFGLTDVY
T1 sequence (D2QUW2 1-435): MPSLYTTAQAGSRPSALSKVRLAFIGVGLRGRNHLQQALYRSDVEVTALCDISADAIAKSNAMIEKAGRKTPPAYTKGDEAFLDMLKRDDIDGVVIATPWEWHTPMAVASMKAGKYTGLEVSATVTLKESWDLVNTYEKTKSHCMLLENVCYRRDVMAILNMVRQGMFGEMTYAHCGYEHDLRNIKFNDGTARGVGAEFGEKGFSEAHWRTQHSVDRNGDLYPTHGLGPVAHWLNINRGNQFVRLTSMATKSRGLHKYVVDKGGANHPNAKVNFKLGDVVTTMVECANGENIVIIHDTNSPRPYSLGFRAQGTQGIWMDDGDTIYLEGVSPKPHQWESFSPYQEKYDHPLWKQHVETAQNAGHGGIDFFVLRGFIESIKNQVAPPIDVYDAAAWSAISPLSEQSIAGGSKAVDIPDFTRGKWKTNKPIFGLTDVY

purified protein = substrate: CC(=O)N[C@H]1[C@@H](Oc2ccc([N+](=O)[O-])cc2)O[C@H](CO)[C@H](O)[C@@H]1O; experiment: purified protein; format: biochemical, Spirosoma linguale; settings: 20 mM sodium phosphate pH 7.4, 25 °C

“Spirosoma linguale α-N-acetylgalactosaminidase (enzyme)” showed a stoichiometry N [1] of 2.

Work on `CC(=O)N[C@H]1C(O)O[C@H](CO)[C@H](O)[C@@H]1O` (some centres unmarked) [N-acetylgalactosamine] yielded a Ki [2] of 180 ± 24 µM.

B1: S. linguale α-NAGA (SlNAGA) (Spirosoma linguale DSM 74) (protein)
chain: T1 sequence (D2QUW2 1-435)
notes: E. coli BL21(DE3); monomer 48215 Da calculated, 96 kDa dimer; primers encode N-term MPSLYTTAQ and C-term PIFGLTDVY
B1 gave a Km (purified protein) of 1070 ± 70 µM, a kcat (purified protein) of 173 s⁻¹ and a kcat/Km (purified protein) of 163000 M⁻¹ s⁻¹.

— publication PMC6521355, “Enzymatic Conversion of RBCs by α-N-Acetylgalactosaminidase from Spirosoma linguale” (Enzyme Research, 2019)
